Source: patent publication US7026443
Where two headings read alike, the source gives them in different places.

Experiments:
HLA-A*0101 (human) [1] = assay: competition with 125I-labelled standard peptide 944.02 ([..]) for purified HLA-A*0101, gel filtration
HLA-B*0702 (human) [2] = assay: competition with 125I-labelled standard peptide for purified HLA, gel filtration
HLA-B*5401 (human) = assay: as above
HLA-B*5101 (human) [3] = assay: as above
HLA-B*5301 (human) [4] = assay: as above
HLA-B*3501 (human) [5] = assay: as above
HLA-A*1101 (human) [6] = assay: competition with 125I-labelled standard probe peptide for purified HLA-A*1101, gel filtration
HLA-A*1101 (human) [7] = assay: competition with 125I-labelled standard peptide for purified HLA-A*1101, gel filtration
HLA-A*0101 (human) [8] = assay: competition with 125I-labelled standard peptide for purified HLA-A*0101, gel filtration
HLA-B*0702 (human) [9] = assay: competition with 125I-labeled standard probe peptide for purified HLA, gel filtration
HLA-B*5101 (human) [10] = assay: as above
HLA-B*5301 (human) [11] = assay: as above
HLA-B*3501 (human) [12] = assay: as above
[13] = biological target: HLA-A*1101 (purified HLA class I molecule) (human)
HLA-A*1101 (human) [14] = assay: inhibition of 125I-labeled standard peptide binding to purified HLA, gel filtration
HLA-A*0301 (human) [15] = assay: as above
HLA-A*0301 (human) [16] = assay: competitive inhibition of 125I-labelled standard peptide binding to purified HLA-A*0301, gel filtration; conditions: remark: other sources report otherwise
HLA-A*2402 (human) [17] = assay: competition with 125I-labelled standard probe peptide for purified HLA-A*2402, gel filtration
HLA-A*2402 (human) [18] = assay: competition with 125I-labelled standard peptide for purified HLA-A*2402, gel filtration

## DTPTLHEY (modifications not checked) [HPV16 E7 4 DTPTLHEY]
HLA-A*0101 (human) [1]
  binding affinity ratio (IC50 of standard peptide / IC50 of test peptide): 0.0002

## GPKATLQDIV (modifications not checked) [HPV18 E7 peptide … (position 3, 10 amino acids)]
HLA-B*0702 (human) [2]
  binding affinity ratio (IC50 of standard peptide / IC50 of test peptide): 0.0001
HLA-B*5401 (human)
  binding affinity ratio (IC50 of standard peptide / IC50 of test peptide): 0.0001
HLA-B*5101 (human) [3]
  binding affinity ratio (IC50 of standard peptide / IC50 of test peptide): 0.0001
HLA-B*5301 (human) [4]
  binding affinity ratio (IC50 of standard peptide / IC50 of test peptide): 0.0001
HLA-B*3501 (human) [5]
  binding affinity ratio (IC50 of standard peptide / IC50 of test peptide): 0.0001

## LILALLRYK (modifications not checked) [HPV18 E1 281 …]
HLA-A*1101 (human) [6]
  binding affinity ratio (IC50 of standard peptide / IC50 of test peptide): 0.18

## QAEPDRAHY (modifications not checked) [… (HPV16 E7, position 44, 9 amino acids)]
HLA-A*1101 (human) [7]
  relative binding ratio (IC50 of standard peptide / IC50 of test peptide): 0.0002
HLA-A*0101 (human) [8]
  relative binding ratio (IC50 of standard peptide / IC50 of test peptide): 0.021

## EPQRHTMLCM (modifications not checked) [HPV18 E7 peptide … (position 55, 10 amino acids)]
HLA-B*0702 (human) [2]
  binding affinity ratio (IC50 of standard peptide / IC50 of test peptide): 0.0026
HLA-B*5401 (human)
  binding affinity ratio (IC50 of standard peptide / IC50 of test peptide): 0.0001
HLA-B*5101 (human) [3]
  binding affinity ratio (IC50 of standard peptide / IC50 of test peptide): 0.0003
HLA-B*5301 (human) [4]
  binding affinity ratio (IC50 of standard peptide / IC50 of test peptide): 0.0043
HLA-B*3501 (human) [5]
  binding affinity ratio (IC50 of standard peptide / IC50 of test peptide): 0.0002

## NSGQKKAKR (modifications not checked) [HPV18 E1 119 …]
HLA-A*1101 (human) [6]
  binding affinity ratio (IC50 of standard peptide / IC50 of test peptide): 0.0002

## SPRLQEISL (modifications not checked) [HPV18 E1 110 peptide …]
HLA-B*0702 (human) [9]
  binding affinity ratio (IC50 of standard peptide / IC50 of test peptide): 0.62
HLA-B*5101 (human) [10]
  binding affinity ratio (IC50 of standard peptide / IC50 of test peptide): 0.0005
HLA-B*5301 (human) [11]
  binding affinity ratio (IC50 of standard peptide / IC50 of test peptide): 0.0002
HLA-B*3501 (human) [12]
  binding affinity ratio (IC50 of standard peptide / IC50 of test peptide): 0.0008

## EPQNEIPVDL (modifications not checked) [HPV18 E7 peptide … (position 16, 10 amino acids)]
HLA-B*0702 (human) [2]
  binding affinity ratio (IC50 of standard peptide / IC50 of test peptide): 0.0001
HLA-B*5401 (human)
  binding affinity ratio (IC50 of standard peptide / IC50 of test peptide): 0.0001
HLA-B*5101 (human) [3]
  binding affinity ratio (IC50 of standard peptide / IC50 of test peptide): 0.0001
HLA-B*5301 (human) [4]
  binding affinity ratio (IC50 of standard peptide / IC50 of test peptide): 0.0001
HLA-B*3501 (human) [5]
  binding affinity ratio (IC50 of standard peptide / IC50 of test peptide): 0.0005

## GTTLEQQY (modifications not checked) [GTTLEQQY (HPV16 E6, position 92, 8 amino acids)]
HLA-A*0101 (human) [8]
  relative binding ratio (IC50 of standard peptide / IC50 of test peptide): 0.0006

## LTEVFEFAFK (modifications not checked) [HPV18 E6 41-50 peptide …]
[13]
  relative binding ratio (IC50 of standard peptide / IC50 of test peptide): 0.036

## LTNILNVLK (modifications not checked) [HPV16 E1 peptide … (position 191, 9 amino acids)]
HLA-A*1101 (human) [14]
  binding affinity ratio (IC50 of standard peptide / IC50 of test peptide): 0.42
HLA-A*0301 (human) [15]
  binding affinity ratio (IC50 of standard peptide / IC50 of test peptide): 0.0086

## LSLHEDEDK (modifications not checked) [HPV16 E1 peptide … (position 620, 9 amino acids)]
HLA-A*1101 (human) [14]
  binding affinity ratio (IC50 of standard peptide / IC50 of test peptide): 0.0002
HLA-A*0301 (human) [15]
  binding affinity ratio (IC50 of standard peptide / IC50 of test peptide): 0.0005

## QPETTDLY (modifications not checked) [QPETTDLY (HPV16 E7, position 16, 8 amino acids)]
HLA-A*0101 (human) [8]
  relative binding ratio (IC50 of standard peptide / IC50 of test peptide): 0.001

## SVYGDTLEK (modifications not checked) [HPV18 E6 84-92 peptide …]
[13]
  relative binding ratio (IC50 of standard peptide / IC50 of test peptide): 0.23

## VVYRDSIPH (modifications not checked) [HPV18 E6 54-62 peptide …]
[13]
  relative binding ratio (IC50 of standard peptide / IC50 of test peptide): 0.38

## DLQPETTDLY (modifications not checked) [HPV16 E7 14 …]
HLA-A*0301 (human) [16]
  relative binding ratio (IC50 of standard peptide / IC50 of test peptide) (ratio to standard peptide): 0.0002
HLA-A*0101 (human) [1]; remark: other sources report otherwise
  binding affinity ratio (IC50 of standard peptide / IC50 of test peptide): 0.002

## QYNKPLCDL (modifications not checked) [HPV16 E6 98 …]
HLA-A*2402 (human) [17]
  relative binding ratio (IC50 of standard peptide / IC50 of test peptide): 0.0001
HLA-A*2402 (human) [18]
  relative binding ratio (IC50 of standard peptide / IC50 of test peptide) (ratio to standard peptide): 0.0001

## DTPTLHEY (modifications not checked) [DTPTLHEY (HPV16 E7, position 4, 8 amino acids)]
HLA-A*0101 (human) [8]
  relative binding ratio (IC50 of standard peptide / IC50 of test peptide): 0.0002

## PYAVCDKCLKF (modifications not checked) [HPV16 E6 66 …]
HLA-A*2402 (human) [17]
  relative binding ratio (IC50 of standard peptide / IC50 of test peptide): 0.11
HLA-A*2402 (human) [18]
  relative binding ratio (IC50 of standard peptide / IC50 of test peptide) (ratio to standard peptide): 0.11

## EGTGCNGWFY (modifications not checked) [HPV18 E1 10-19 peptide …]
HLA-A*1101 (human) [6]
  relative binding ratio (IC50 of standard peptide / IC50 of test peptide): 0.0002
